Results reported in the Human Domainome abundance scans (Beltran et al. 2025).

B1: Zinc finger homeobox protein 4, residues 2086 to 2141; numbered along this chain, Q86UP3 (parent)
chain: RPRTRITDDQLKILRAYFDINNSPSEEQIQEMAEKSGLSQKVIKHWFRNTLFKERQ

Variants of: B1
Assay: abundance fitness (aPCA) (normalised: wild type 0, dead -1); higher = more abundant; growth selection in yeast, the domain comes from the species named
Details: Homo sapiens

Abundance fitness of substitutions, site by site:
L38: K -0.938 | F -0.793 | N -0.769 | R -0.746 | A -0.06 | M -0.011 | P -0.982 | Y -0.419 | I -0.217 | D -0.765 | T -0.279 | E -0.557 | Q -0.349 | C -0.11 | V -0.117 | W -0.666 | S -0.545
L51: S -0.1 | D -0.047 | T -0.065 | A 0.007 | H -0.071 | R -0.092 | Q 0.126 | P -0.125 | G -0.134 | N -0.12 | Y -0.098 | I -0.237 | M 0.005 | F -0.257 | K -0.043 | W -0.163 | E -0.127 | V 0.04
T50: L -0.061 | Q 0.035 | G -0.079 | D 0.102 | F -0.182 | Y -0.288 | C -0.213 | A -0.013 | W -0.109 | S -0.053 | R -0.032 | E 0.051 | K -0.016 | N 0.007 | M 0.065 | I -0.119
I43: Y -0.8 | E -0.946 | S -0.994 | W -0.928 | K -1.19 | V -0.073 | G -1.24 | N -1.02 | P -1.09 | H -1.05 | D -0.876 | A -0.488 | L -0.195 | F -0.607 | Q -1.02 | C -0.367 | M -0.541
N49: E 0.079 | H 0.141 | R -0.009 | P -0.383 | S -0.022 | I 0.019 | A -0.023 | K 0.123 | Q -0.155 | D 0.085 | L -0.172 | W -0.12 | T 0.025 | Y -0.169
F52: R 0.184 | Y -0.02 | H 0.018 | N 0.134 | L -0.005 | V 0.062 | K 0.068 | Q 0.006 | W -0.174 | T 0.052 | M -0.131 | G 0.035 | C 0.13 | I 0.014 | A -0.029 | S -0.067 | D -0.085
R48: E -0.153 | Y -0.289 | S -0.112 | C -0.056 | V -0.111 | G -0.042 | W -0.185 | F -0.142 | A -0.047 | L -0.04 | D -0.09 | P -0.444 | N 0.125 | M -0.095 | T 0.1 | H 0.049 | I -0.164 | Q 0.056
K44: P -0.716 | C -0.204 | Y 0.049 | H -0.042 | L -0.204 | S -0.069 | F -0.023 | V -0.186 | I -0.25 | D 0.068 | G 0.001 | M -0.098 | Q -0.362 | R -0.01 | A 0.038 | E -0.031 | W -0.312 | T -0.017 | N -0.042
R55: C 0.016 | P -0.118 | Q -0.028 | N -0.255 | H 0.256 | S -0.011 | T -0.158 | M -0.198 | E -0.059 | A -0.025 | G -0.038 | L -0.091 | D -0.163 | W -0.215 | I -0.632 | F -0.125 | V -0.204 | Y -0.431
F47: K -0.558 | I -0.416 | P -0.951 | Q -0.342 | V -0.041 | N -0.398 | W -0.197 | Y -0.096 | H -0.146 | L -0.149 | D -0.708 | T -0.234 | S -0.287 | C -0.134 | M -0.097 | R -0.506 | E -0.517 | G -0.753
Q40: R -0.062 | W -0.11 | D -0.232 | G -0.173 | I -0.091 | S -0.115 | E -0.253 | C -0.1 | H -0.172 | F 0.038 | V -0.098 | M 0.03 | T -0.188 | N -0.217 | Y -0.157 | K 0.082 | A -0.14 | P -0.114 | L -0.003
K53: T -0.042 | S 0.016 | W -0.131 | C -0.201 | Y -0.064 | L 0.06 | D -0.041 | M -0.114 | I 0.141 | H 0.023 | F -0.284 | P -0.285 | Q -0.072 | G -0.071 | V -0.157 | N -0.023
Q56: W -0.492 | A -0.646 | L -0.214 | K 0.295 | S -0.502 | C -0.802 | R -0.024 | M -0.12 | G -0.439 | N -0.083 | T -0.07 | V -0.568 | H -0.363 | E -0.77
H45: L -0.042 | A -0.018 | G -0.029 | C -0.181 | N -0.061 | Q -0.006 | S -0.004 | W 0.023 | E 0.09 | D 0.006 | Y -0.034 | F -0.082 | P -0.207 | K 0.038 | R 0.08 | V -0.059 | I -0.114 | T 0 | M -0.059
G37: T -0.083 | W -0.535 | S -0.15 | Q -0.052 | R -0.032 | P -0.805 | N 0.032 | M -0.06 | V -0.378 | Y -0.429
E54: S -0.047 | W -0.215 | V -0.057 | M -0.375 | I -0.403 | F -0.231 | H -0.238 | T -0.189 | G -0.17 | A -0.082 | P -0.182 | K -0.169 | Q -0.206 | C -0.205 | R -0.1 | N -0.149 | L -0.035 | D -0.102
V42: M -0.021 | C -0.002 | P -0.478 | F 0.007 | W -0.112 | K -0.079 | E 0.031 | T -0.057 | A 0.012 | I -0.057 | G -0.077 | D 0.093 | N -0.212 | S -0.059 | R 0.086 | Q -0.037 | Y -0.065 | L -0.085 | H -0.069
S39: W -1.16 | P -0.115 | K 0.081 | R 0.007 | L -0.767 | C -0.395 | F -0.323 | G -0.227 | Y -0.14 | A -0.163 | T -0.135 | M 0.217 | E 0.127
K41: T -0.093 | L -0.174 | H 0.033 | W -0.123 | V -0.124 | I -0.106 | G -0.042 | Q -0.235 | F -0.02 | A -0.136 | E -0.043 | P -0.307 | C 0.032 | N -0.393 | M -0.146 | D 0.183 | S -0.141
W46: N -0.762 | F -0.237 | L -0.239 | M -0.376 | V -0.221 | A -0.313 | Y 0.001 | D -0.297 | S -0.406 | P -0.698 | G -0.655 | E -0.141 | R -0.516 | Q -0.483 | T -0.203 | I -0.331 | K -0.737
